Laboratory results: the nanobody polyreactivity screen of Harvey et al. (2022)

Assay: yeast display, Sf9 membrane polyspecificity reagent, FACS + sequencing; frameworks hold sequencing errors
Procedure, shortened: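 A synthetic nanobody library was expressed on Saccharomyces cerevisiae BJ5465 by galactose induction for 36–48 hours. The library was stained for 1 hour at 4 °C with 10% biotinylated, detergent-solubilized Sf9 membrane reagent and enriched with streptavidin microbeads before FACS. Low and high (top ~1%) gates were set on anti-HA fluorescence for expression and streptavidin fluorescence for reagent binding, and each polyreactivity label reflects the gate of origin.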

Sequence | polyreactivity (PSR sort gate)
QVQLVESGGGLVQAGGSLRLSCAASGFIFVTYAMGWYRQAPGKERELVAAITNSGGTTYYADSVKGRFTISRDNAKNTVYLQMISLKPEDSAVYYCNKPYGAETAHREFDYWGQGTQVTVSS | low polyreactivity
QVQLVESGGGLVQAGGSLRLSCAASGLTFYYYAMGWYRQAPGKERELVATISSGGNTNYADSVKGRFTISRDNAMNTVYLQMNSLKPEDTAVYYCNADRWFHYYRYNYWGQGTQVTVSS | high polyreactivity
QVQLVESGGGLVQAGGSLRLSCAASGRIFDGYTMGWYRQAPGKERELVAAITYRSGRTYYADSVKGRFTISRDNAKNTVYLQMNSLKPEDTAVYYCNKVKRSFIVNTDDYCGQGTQVTVSS | high polyreactivity
QVQLVESGGGLVQAGGSLRLSCAASGRTIYYYAMGWYRQAPGKEREFVAAISWHGGSTYYADSVKGRFTISRDNAKNTVYLQMNSLKPEDTAVYYCAAERYDRVGFDYWGQGTQVTVSS | low polyreactivity
QVQLVESGGGLVQAGGSLRLSCAASGSIFYLNAMGWYRPAPGKERELVAAIRWSGGSTRYADSVKGRFTISRDNAKITVYLQLNSLKPEDTAVYSCAADTYVYTLGRYYYWGQGTQVTVSS | high polyreactivity
QVQLVESGGGLVQAGGSLRLSCAASGFIFRHNAMVWYRQAPGKERELVAAITKRGGDTYYADSVKGRFTISRDNAKNTVYLQMISLKPEDTAVYYCNVDVRYPKYYYWGQGTQVTVSS | low polyreactivity
QVQLQESGGGLVQAGGSLRLSCAASGYISHADEMGWYRQAPGKEHELVASISNGGSTNYADSVKARCTISRDNAKTTVYLQMNSLKSEATAVYFCAAWTGQVDIHYYWGQGTQVTVSS | low polyreactivity
QVQLVESGGGLVQAVGSLRLSCAASGRIFRVNAMGWYRQAPGKERELVASITSGGSTHYADSVKGRFTISRDNAKNTVYLQMNSLKPEDTAVYYCNVAYGLLWISPGGDYWGQGTQVTVSS | low polyreactivity
QVQLVESGGGLVQAGGSLRLSCAASGRIFSAYAIGCYRQSPWKERELVSAISRSGGRTYYADSVKGSFTISRDNAKNTVYLQMNSLKPEDTAVYYCAAARFAIVRGDYCGQGTQVTVSS | high polyreactivity
QVQLVESGGGLVQAGGSLRLSCAASGRTFGYNALGWYRQAPGKERELVAAITRGGITHYADSVKGRFTISRDNAKNTVYIQKNSLKPEDTAGYYCAKRGPYYTDDEYYWGQGTQVTVSS | low polyreactivity
QVQLVESGGGLVQAGGSLRLSCAASGLTIAYYDMGWYRPAPGKERELVARISRGGSTNYADSVKGRFTISRDNAKNTVYLQMNSLKPEDTAVYYCNTGYVYPYKILMDYWGQGTQVTVSS | low polyreactivity
QVQLVESGGGLVQAGGSLRLSCAASGSTLDEYAMGWYRQAPGKEREFVAAISWSDGSTYADSVKGRFTISRDNAKNTVYLQMNSLKPEDTAVYYCNAYAYVSLYYSGEYWGQGTQVTVSS | low polyreactivity
QVQLVESGGGLVQAGGSLRVSCAASGIIFGPYVMGWSRQAPGKERELVATISRTGDTYYADSVKGRFTISRDNAKNTVYLQMNSLKPEDTAVYYCNTQDHGYGFTMDYWGQGTQVTVSS | low polyreactivity
QVQLVESGGGLVQAGGSLRLSCAASGSTFVRYVMGWYRQATGKERELVAAISRRGGSTYYADSVKGRFTISRDNAKNTVYLQMNSLKPEDTAVYYCARTVGYRTLLESDSWGQGTQVTVSS | high polyreactivity
QVQLVESGGGLVPAGGSLRLSCAASGRTFFPYAMAWYRQAPGKEREFVAAITWSGGSTTYADSVKGRFTISRDNAKNTVYLQMNSLKPEDTAVYYCNAGRRRSYSYDYWGQGTQVTVSS | low polyreactivity
LVQLVESGGGLVQAGGSLRLSCAASGRTFRLNALGWYRPAPGNERELVARITGSSGGSTYSADSVKGRFTISRDNAKNTVYLQMNSLKPEDTAVYYCAARYTPRGKRYDYWGQGTQVTGSS | high polyreactivity
QVQLVESVGGLVQAGGSLRLSCSASGRTFSYYTMGWYRQAPGKERELVADINTSVGSTDYADSVKGRFTISRDTAKNTVYLQMNSLKPEDTAVYYCQLIRRGHDYWGQGTQVTVSS | high polyreactivity
QVQLVDSGGGLVQAGGSLRLSCAASGFIFGINAMGWYRQAPGKERELVSAISTGDRTNYADSVKRRFTISRDNAKNTVYLQMYSLKPEDTAVYYFAKDWRRNRPYEWTYDYWGQGTQVTVSS | low polyreactivity
QVQLVESGGGIVQAGGSLRLSCAASGLTFRYYAMGWYRQAPGKERELVAAISGSGGSTYYADSVKGRFTISRDNAKNTVYLQLNRLKPEDTAVYYFASENESSSWGDYAMGYWGQGTQVTVST | high polyreactivity
QVQLVESGGGLVQAGGSLRLSCAASGFIFGVYDMGRYRQAPVKERDLVAAISIDDITNYADSVKGRFTISRDNAKNTVYLHLNSLKPEVTAVYYCAADGRTWWSNLEGEYWGQGTQVTVSS | low polyreactivity
QVQLVESGGGLVQAGGSLRLSCAASGMGWYRQAPGKERELVATITWSDGITYADSVKGRFTISRDNAKNTVYLQMNSLKPEDTAVYYCNADWDQTGTVFYSFGMREMDSWGQGTQVTVSS | low polyreactivity
